Results taken from publication PMC4940161, “Time-resolved studies define the nature of toxic IAPP intermediates, providing insight for anti-amyloidosis therapeutics” (eLife, 2016).
Like-named read-outs stand apart in the source and are kept apart here. Positions of bridges follow the written chain, without caps; N, C: chain ends. No end group written: not given here.

Legend:
[1] = tested on: rat INS-1 β-cells; settings: ref Wang et al., 2014b; cited from earlier work
Description: (§1) IAPP is expressed by all mammals examined to date; the amino acid sequences are ~80% conserved between species, however not all IAPP sequences are toxic or form amyloid in vivo (Figure 5—figure supplement 1) ([Betsholtz et al., 1989]; [Cao et al., 2013b]; [Westermark et al., 1990]).

[2] = ref Wang et al., 2014b; cited from earlier work
Description: as §1

[3] = Photochemical induced cross-linking / SDS-PAGE oligomer distribution; type: physicochemical; settings: 20 µM peptide, 20 mM Tris HCl pH 7.4, 25°C, at time points of h-IAPP toxicity, supernatant after 20,000 g 20 min, Tris(bipyridyl)Ru(II) cross-linking, silver stain
Protocol: Samples were cross-linked using Tris(bipyridyl)Ru(II), in the presence of ammonium persulfate. IAPP peptides were incubated for indicated times in 20 mM Tris HCl (pH 7.4) at 25°C. Aliquots were removed at indicated time points, centrifuged at 20,000 g for 20 min and added to the cross-linking solution. Samples contained a final concentration of 20 µM peptide, 70 µM Tris(bipyridyl)Ru(II) and 1.4 mM ammonium persulfate. Samples were illuminated with a 150 W incandescent bulb for 5 s, unless otherwise noted. The reaction was quenched by the addition of β-mercaptoethanol. The products were separated by SDS polyacrylamide gel electrophoresis using a 10–20% Tris-tricine gradient gel. Oligomer bands were visualized by silver staining (SilverXpress, Invitrogen). Quantitative analysis was carried out using GelAnalyzer software version 2010a. The relative intensity of each band was calculated by first correcting the baseline, then integrating the area under each peak.

[4] = Solubility assay by ultracentrifugation; type: physicochemical; settings: 20,000 g for 20 min; UV absorbance at 215 nm
Protocol: Samples of toxic lag phase intermediates or amyloid fibrils were ultracentrifuged for 20 min (20,000 g) and the protein in the soluble fraction (the supernatant) was measured by UV absorbance (215 nm) before and after ultracentrifugation using a DU 730 Life Science UV/Vis spectrophotometer (Beckman Coulter).

[5] = tested on: rat INS-1 β-cells; assay: Alamar Blue reduction β-cell viability assay; type: cell-based; settings: for Toxicity to β-cells over the time course of aggregation: 20 μM peptide solutions, 14 μM final on cells, aliquots at different time points
Protocol: Rat INS-1 β-cells (832/13) were generously provided by Professor Newgard (Duke University). β-cells were grown in RPMI 1640 supplemented with 10% fetal bovine serum (FBS), 11 mM glucose, 10 mM Hepes, 2 mM L-glutamine, 1 mM sodium pyruvate, 50 µM β-mercaptoethanol, 100 U/ml penicillin, and 100 U/ml streptomycin.
(§2) Synthetic amyloidogenic and non-amyloidogenic IAPP peptides were dissolved in 1,1,1,3,3,3-Hexafluoro-2-propanol (HFIP) for 5–12 h, aliquoted and lyophilized to a dry powder. Amyloid formation was initiated by dissolving dry HFIP-treated peptides in 20 mM Tris HCl buffer (time-zero) at pH 7.4. Samples were incubated at 25°C, unless indicated otherwise. Aliquots were removed from the peptide solutions at designated time points over the course of amyloid formation or aggregation as schematically depicted in Figure 2A. The kinetic species populated within each of the three phases of amyloid formation were concurrently characterized by biophysical methods and biological assays assessing changes in metabolism, oxidative stress, inflammation and apoptosis using INS-1 β-cells and murine pancreatic islets.
Rat INS-1 β-cells were seeded at a density of 30,000 cells per well in 96-well plates 12–16 h prior to start of experiments. Hand purified islets were seeded at a density of 25–30 islets per well in 96-well plates. Amyloid formation and aggregation assays were initiated by dissolving IAPP peptides (15 μM to 80 μM stock solutions for dose-response experiments) in 20 mM Tris HCl (pH 7.4), unless stated otherwise. Peptide solutions were incubated at 25°C, or as indicated. Aliquots were removed from amyloid formation and aggregation assays at different time points and applied exogenously to rat INS-1 β-cells (5 h incubation) or murine pancreatic islets (10 h incubation). β-cells and islets were photographed by light microscopy immediately before and after toxicity experiments to assess changes in morphology. The final range of peptide concentrations examined in β-cell and islet toxicity assays after diluting IAPP peptide solutions into cell or islet culture was 10.5 μM to 56 μM in dose-response studies, unless indicated otherwise. Cell viability was measured by Alamar Blue reduction assays, which detect changes in metabolic function, and by morphological changes detected by light microscopy. Alamar Blue was diluted ten-fold in culture medium and incubated on β-cells or islets for 5 h at 37°C. Fluorescence (530 nm excitation and 590 nm emission) was measured with a Beckman Coulter DTX880 plate reader. Values were calculated relative to control β-cells or islets treated with buffer alone. Toxicity was defined as <80% viability. Light microscopy images were captured using an Olympus BX-61 light microscope.

[6] = Amyloid formation kinetics (thioflavin-T binding, TEM); type: physicochemical; settings: 20 mM Tris HCl pH 7.4, 25°C; for Amyloid formation: thioflavin-T binding and TEM, 20 µM peptide (3xL-IAPP 40 µM), I26P-IAPP over 35+ h
Protocol: as §2
Aliquots (100 μL) were removed from amyloid formation and aggregation assays at different time points, and added to 96-well plates containing 8 μL of a 1 mM thioflavin-T solution. Fluorescence was measured using a Beckman Coulter DTX880 plate reader (445 nm excitation and 485 nm emission). Final solution conditions contained […] and 74 µM thioflavin-T (pH 7.4).
Aliquots (4 µL) were removed from amyloid formation or aggregation assays at different time points and placed on a carbon-coated 200-mesh copper grid and negatively stained with saturated uranyl acetate. The samples were imaged with a Philips CM12 or a FEI BioTwinG2 transmission electron microscope.

[7] = 1:1 addition to h-IAPP (40 µM each)
[8] = aliquots from peptide in 20 mM Tris HCl pH 7.4, 25°C, 14 μM (h-IAPP) or 28 μM (3xL-IAPP) final, 5 h on cells, toxicity defined as <80% viability

TM-IAPP: H18R, G24P, I26P triple mutant of h-IAPP (KCNTATCATQRLANFLVRSSNNFPAPLSSTNVGSNTY-NH2; disulfide 2-7; ends not checked; UniProt P10997 34-70, looked up, variant H18R G24P I26P)
Toxicity [1]: non-toxic
Amyloid formation [2]: non-amyloidogenic
Distribution of oligomers in solution [3]: oligomerizes

r-IAPP: non-toxic, non-amyloidogenic rat IAPP, negative control [reference compound]
Solubility under ultracentrifugation conditions (control) [4]: soluble
Toxicity to β-cells over the time course of aggregation ([5]; Alamar Blue, 5 h on cells): not toxic at any time point
Toxicity to β-cells, dose-response ([5]; 28, 56 and 84 µM peptide prepared directly in cell culture medium, 24, 48 or 96 h on cells, Alamar Blue): No detectable toxicity
Toxicity over extended time course ([5]; 28 day time course, data not shown): not toxic over a 28 day time course
Distribution of oligomers in solution [3]: monomers to hexamers
Amyloid formation [6]: does not form amyloid fibrils

I26P-IAPP: I26P point mutant of h-IAPP; inhibitor of h-IAPP amyloid formation (KCNTATCATQRLANFLVHSSNNFGAPLSSTNVGSNTY-NH2; disulfide 2-7; ends not checked; UniProt P10997 34-70, looked up, variant I26P)
Toxicity to β-cells over the time course of aggregation ([5]; Alamar Blue, 5 h on cells): not toxic at any time point
Effect on duration of h-IAPP cytotoxicity ([5]; 1:1 addition to h-IAPP, 80 µM total peptide, 56 µM final on cells, time-resolved Alamar Blue): increases the duration of toxicity proportionally
Distribution of oligomers in solution [3]: low order oligomers
Effect on T50 of h-IAPP amyloid formation (time to 50% of total thioflavin-T signal change) [6, 7]: increased by a factor of two
Effect on length of h-IAPP lag phase (time to 10% of total thioflavin-T signal change) [6, 7]: increased by a factor of two
Amyloid formation [6]: non-amyloidogenic

human islet amyloid polypeptide
upper limit of β-sheet content: < 15%

3xL-IAPP: triple mutant of h-IAPP that lacks aromatic residues (KCNTATCATQRLANLLVHSSNNLGAILSSTNVGSNTL; ends and bridges not checked; cysteine pairing not given here; UniProt P10997 34-70, looked up, variant F15L F23L Y37L)
β-cell viability at time point of maximum toxicity ([5]; 40 μM peptide solution (28 μM final on cells), Alamar Blue, 5 h on INS-1 β-cells, relative to buffer treated cells, mean, three replicate experiments): 67%
Toxicity of amyloid fibrils (saturation phase) to β-cells [5, 8]: not toxic
Toxicity of lag phase intermediates to β-cells [5, 8]: clearly still toxic
Amyloid formation [6]: form amyloid more slowly than the human peptide
